Assay results as given in the supplement of paper PMC12764529.
± gives the half width of the 95% confidence interval.

Assay: folding stability dG unfold (combined trypsin and chymotrypsin); higher = more stable
How it was run: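 Sequencing followed digestion of designed mini-proteins with trypsin and chymotrypsin, each at 11 concentrations in threefold dilutions together with a no-protease condition. The mini-proteins were under 80 residues, had no cysteine, sat in a PA-tagged cDNA display construct, and were kept only if AlphaFold2 dimer inter-PAE was above 15. From the counts, Bayesian fitting gave K50, and unfolding free energy was derived against a sequence-predicted unfolded-state K50 and a shared folded-state K50, per protease or combined.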

Sequence | folding stability dG unfold [kcal/mol]
SAGEEPPEVTIKVVEKDGKLVIEVEYNGKTLTITLEDGEKIEIKFPEGMSEEELLEEAKRLAKELAEKSAGG [r19_170_TrROS_Hall] | 2.63 ± 0.39
SAGGMPPGQVVRLRLERVSPTWVRLYFPETGEVLYFPVRPDATLAEAEAIARELAERLGYPVEIETVSAGGS [r16_446_TrMRF] | 3.8 ± 0.07
SAGGSEKKVLVLKFRHPENDKPLFSVRIVLEKPPEDSYKAKIELLDLPEDYVLSPEAIKAILEALKSAGGSA [r2_7_TrMRF] | 2.3 ± 0.11
SAGGGRARLIELKEARFNPETGVLELTALVEFPEIGTLVVFRIRVPLEGEPRIEIEVEVYPIKPGEASAGGS [r16_207_TrMRF] | 4 ± 0.091
SAGGPNIELEFETYRDPDGMLVIKFHIRIKFGNKPVYIFVEGVIPPDGEAQIEDAYIFDADNGEWIPISAGG [r13_932_TrROS] | 4.26 ± 0.29
SAGKKKTVTIYLRVETPEEARKLVEELAKKLGAEVTSVEIEKVDGKYYVTVTIKVDGKEIKIVIEFEPSAGG [r19_262_TrROS_Hall] | 2.67 ± 0.087
SAGGSKKKIYKIKIKIEVINEETGEKKTVEIEIEAESLEEALAAIAKALLPEGQTVKIVDIEIEEVSAGGSA [r2_320_TrROS_Hall] | 3.73 ± 0.085
MEIIKKLKIPDYEIVSVKTKKIGNKVIVVVVLKKEKEYYVIVAEINPETKEIKIISIKKLKENETLEDFISS [r1_383_TrMRF] | 3.76 ± 0.32
SMPEKYIVRVEVRGRDGKTVTFEAEATVDSSDFDDFIEAILEAPGLEDADEVRFYVYRLGTGRPEEFTVPSA [r9_97_TrMRF] | 2.7 ± 0.069
SMGSITITLPATPEELRELLREKGISPELAPSWEEVKEALKKAFPKNVTVTINPKSPVSEEAAKAAREGSSA [r9_74_JUSTAS] | 1.13 ± 0.064
SAGGSAGGSAGPVKLTLEVPEEEAEELAEALREAGYEVEIERDEETKRLRVTITVDPEALSAGGSAGGSAGG [r11_1043_TrROS_Hall] | 2.01 ± 0.12
KTISSDELLELLGVSKSELKKLPLEAIVDEVKKALPPGVAVSAKAEPIPENPSYTIVVELKNGEPVTITLDS [r1_340_TrMRF] | 0.964 ± 0.12
SAGGSAPPFYIAINPDKPKSIHIMPPGSPDMRDDDGSKVIPFRTEEEFLKLIQEIKKKGVDKIHIYSAGGSA [r15_1004_TrROS] | 0.413 ± 0.24
SAGGVREIAKRIANFAREHGYEVEVDEIEPPPNGYVVIDAKIQMRDGGKPVHEFPISIRFPPPPGDPSAGGS [r8_102_TrROS] | 3.86 ± 0.68
SAGGSAGGSSYTTSTATDPNADVTTTTTTYPDSIVTPVWDPRTGKVVETVTTTPDGTTTTVAASAGGSAGGS [r12_563_JUSTAS] | 0.289 ± 0.14
SAGGGMNISVDPNQSVTIPVTRIENGVPVETTVTISLPAGSTISPEGDNIIINYPHTGQTITLPTTLISAGG [r13_275_JUSTAS] | 0.862 ± 0.041

Sequence | folding stability dG unfold [kcal/mol]
SAGGSAGGSAGGDDNDKEPIGEVTVEVIIPPQIPIRIRWDIYKDPPNGNAMMNMDIDIHSAGGSAGGSAGGS [r10_6_TrROS] | 0.719 ± 0.22
SAGGSAGGSAKPKVVLVEYDEKTGKFKIVFPDGKELEITGLTPEQIKELAKSLGADYVIIESAGGSAGGSAG [r3_78_TrMRF] | 3.83 ± 0.09
SAGGSAGGSSPPLEILDPVSATLPDGGTLTVAKAAGSYYLVTTTTYDPATGTATSTTTVVPLESAGGSAGGS [r20_15_JUSTAS] | 0.528 ± 0.065
SAGGSASMTTKRPVSPELRAKVEAAAAAGDPAITVTLPVTLPDGRTVTLTVTKDPTADTFTATVVSSAGGSA [r15_700_JUSTAS] | 0.221 ± 0.22
SAGGSAGGSAGGSPVSPKIVTTDPGPNVITTVYYSPEDGKVLSTSTTVVPPLPPGEILTSAGGSAGGSAGGS [r10_1051_JUSTAS] | 1 ± 0.32
SAGGSAGGSAGGSQDLVKITIKLPGGEEKEITTPAEEIDKAIKELGIKKEDVEILEITEVSAGGSAGGSAGG [r7_211_JUSTAS] | 1.34 ± 0.24
SAGGSAGGSMETVTVLLNTPGTPVTFTFPVPAGVGEEAVKELVRKALPEVEIEVVEITTTPAASAGGSAGGS [r12_427_JUSTAS] | 0.463 ± 0.15
SAGGPKKRKWVTFTIDIYIPTPPGQSIEDEARKLAENLGIEITDVEVEPHPNGMVKIDVTVTIWIPYSAGGS [r8_292_TrROS] | 3.91 ± 0.13
SAMTVVIPPNLTALTEDGRPIHPDQVVEVYEAEAFPELGRVVARVKVFDPVSGEETEERLVLFFPDGAESAG [r14_258_TrMRF] | 1.53 ± 0.036
SAGGMMKLNPKTLETKTTTVPLPDGSTVTLTTKLVELKFPNGEVELVTLTVETFPSEPTLTVLEEKPLSAGG [r19_158_JUSTAS] | 0.341 ± 0.11
SAGGSAMKIKRDNGKVRIEIDFPPEMKNPERMLMNIRSAINENPNKPIKVTMPPGHREWAKRLLKESAGGSA [r15_89_TrROS] | -0.248 ± 0.24
SAGGSAGGSATKTIKVKNADGETVELTVEKREDGSYKITLTFPDGTKKTFTIKPGEKIVIKPSAGGSAGGSA [r18_115_TrROS_Hall] | 3.9 ± 0.12
SAGGSAGGEISPEDIESVETETRTLPNGLKITRTRVRVKKTNQWFELVRIEPLPAEELSEEELKSAGGSAGG [r6_757_TrROS_Hall] | 1.59 ± 0.13
SAGGSAGGSAMITTYDPKTGLVYELVPDPVPGVGVERLVVRVVTVEEFPDAIVRKVEVRPESAGGSAGGSAG [r3_409_JUSTAS] | 0.67 ± 0.14
SAGGSAGGSAGGKATLGEDGFLVIEREVELPDGPYRPETLVIPLPELTPEEVERLLETESAGGSAGGSAGGS [r10_1096_TrMRF] | 1.05 ± 0.096
SAGGNLDKEFVRDIIENFGFTRIEVEEHPNRKVVTFRFENMDVVIRPDGQIEIENPGGEPVFQIEVPSAGGS [r8_147_TrROS] | 1.53 ± 0.21
